For 5 molecules, percent of parent (% signal of wild type) and stoichiometry N results are on record in publication PMC4406585.

The target of one experiment is anti-GBB5-A1 scFv. Description: ELISA. The conditions noted are these: chain shown with the change; biotinylated peptides immobilized in streptavidin-coated microtiter plate wells; soluble scFv protein; parent: est. 100; read off a plot. (In general: ELISA stands for enzyme-linked immunosorbent assay.)
Another experiment has as its target anti-GBB5-H9 scFv. Description: ELISA. The conditions noted are these: chain shown with the change; biotinylated peptides immobilized in streptavidin-coated microtiter plate wells; soluble scFv protein; parent: est. 100; read off a plot.
Experiment [1] deals with anti-GBB5-H9 scFv-Fc (human). Description: SEC; size exclusion chromatography and denaturing SDS-PAGE of the purified scFv-Fc; conditions not given.

Chain of anti-GBB5-A1 scFv (chain, as listed by the source, chain 1 of 2): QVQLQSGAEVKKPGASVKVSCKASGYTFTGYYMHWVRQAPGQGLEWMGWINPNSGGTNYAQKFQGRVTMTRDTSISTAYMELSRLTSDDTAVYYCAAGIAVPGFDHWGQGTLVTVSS
Chain of anti-GBB5-A1 scFv (chain, as listed by the source, chain 2 of 2): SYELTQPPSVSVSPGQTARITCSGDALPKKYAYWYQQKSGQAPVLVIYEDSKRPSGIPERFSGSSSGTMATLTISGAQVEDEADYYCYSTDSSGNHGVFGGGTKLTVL

B1: GBB5 peptide (Guanine Nucleotide-Binding Protein Beta 5) V14A (peptide)
chain: GSGSKLHDVELHQAAERV
With B1, the values for the percent of parent (% signal of wild type) with anti-GBB5-A1 scFv and with anti-GBB5-H9 scFv were 51 and 55, respectively.

B2: GBB5 peptide (Guanine Nucleotide-Binding Protein Beta 5) D4A (peptide)
chain: GSGSKLHAVELHQVAERV
B2: the percent of parent (% signal of wild type) with anti-GBB5-A1 scFv was determined as 0.3; in the experiment with anti-GBB5-H9 scFv it was 1.9.

B3: GBB5 peptide (Guanine Nucleotide-Binding Protein Beta 5) K1A (peptide)
chain: GSGSALHDVELHQVAERV
B3: the percent of parent (% signal of wild type) stood at 0.2 with anti-GBB5-A1 scFv and 74 with anti-GBB5-H9 scFv.

B4: anti-GBB5-H9 scFv-Fc (Fc fusion)
VH: EVQLVQSGGGLVQPGGSLRLSCAASGFTVSSNYMSWVRQAPGKGLEWVSSISSSSSYIYYADSVKGRFTISRDNAKNSLYLQMNSLRAEDTAVYYCARSYPFDYWGQGTLVTVSS
VL: NFMLTQPHSVSESPGKAVTISCTGSSGDVARNYVQWYQQRPGSAPIIVIYEDTQRPSGVPDRFSGSIDSSSNSASLTISGLTTEDEADYYCQSYDGHNVIFGGGTKLTVL
In general, stoichiometry N refers to a count of units in the complex or per binding partner. In experiment [1], B4 registered a stoichiometry N of 2.

B5: GBB5 peptide (Guanine Nucleotide-Binding Protein Beta 5) R13A (peptide)
chain: GSGSKLHDVELHQVAEAV
In the case of B5, the results for the percent of parent (% signal of wild type) with anti-GBB5-A1 scFv and in the experiment with anti-GBB5-H9 scFv were 56 and 1.7, respectively.
